# Results published in PMC8996325.
# T1: Act1 SEFIR (wild type) (UniProt Q8N7N6 390-531)
# T1 sequence: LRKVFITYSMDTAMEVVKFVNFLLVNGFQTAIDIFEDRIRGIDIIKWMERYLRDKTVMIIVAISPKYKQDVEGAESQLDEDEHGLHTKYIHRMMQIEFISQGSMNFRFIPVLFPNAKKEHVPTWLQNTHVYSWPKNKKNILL
# Biological target: T1, Act1 SEFIR (wild type)
# Assay: competition
binder,measurement,value
"Hif1α aptamer (SBE) (structured_RNA, chemically modified RNA oligo (modification not specified)) RNA: UAAUGCUCUUUUUAAUAUGUUCUUUUAAUGCCAGAUCACAGCACAUUCACAGCU",binding result,binds
